Data reported in PMC2796180.

Molecular target: GFP-tagged mProVII chains (in the FRET assay) (mouse)
Assay: FRET or BRET

RFP-tagged wild type mouse mini-procollagen VII α chain (domain or fragment)
FRET efficiency EF: 5.83%
